The results in this text go back to FireProtDB (doi:10.1021/bi0118052).

The conditions of the data set: Homo sapiens; pH 7.2; 25 °C; GdnHCl; CD; MOPS 10 mM; KCl 50 mM; reversible: yes; whole UniProt chain shown.

Values joined by “and” are separate entries in the source; they are usually repeats but may differ in a detail not shown here. Equal values may be shown once.

B1: Protein S100-B wild type, P04271 (protein)
chain: MSELEKAMVALIDVFHQYSGREGDKHKLKKSELKELINNELSHFLEEIKEQEVVDKVMETLDNDGDGECDFQEFMAFVAMVTTACHEFFEHE
Take B1: the “denaturant midpoint (higher = more stable)” value was 3.2 M and 4.6 M; the unfolding free energy is 17.3 kcal/mol.
